# Experimental data from patent US20190023793A1.
# Biological target: human PD-L1 full-length protein on cells (human) (UniProt Q9NZQ7)
# Assay: cell-based or functional assay
# Sequence of human PD-L1 full-length protein on cells (human) (Q9NZQ7 19-290): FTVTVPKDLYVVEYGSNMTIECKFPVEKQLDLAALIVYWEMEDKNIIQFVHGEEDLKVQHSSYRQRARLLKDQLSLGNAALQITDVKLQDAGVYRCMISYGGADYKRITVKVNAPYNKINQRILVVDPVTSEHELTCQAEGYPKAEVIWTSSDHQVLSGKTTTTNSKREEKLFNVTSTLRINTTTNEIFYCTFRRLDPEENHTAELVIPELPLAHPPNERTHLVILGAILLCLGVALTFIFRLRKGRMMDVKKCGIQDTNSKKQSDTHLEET
"MOA NFAT reporter signal (Bio-Glo) at 100.000 nm, negative control",MOA NFAT reporter signal (Bio-Glo) at 0.005 nm,MOA NFAT reporter signal (Bio-Glo) at 0.046 nm,MOA NFAT reporter signal (Bio-Glo) at 0.137 nm,MOA NFAT reporter signal (Bio-Glo) at 0.412 nm,MOA NFAT reporter signal (Bio-Glo) at 1.235 nm,MOA NFAT reporter signal (Bio-Glo) at 3.704 nm,MOA NFAT reporter signal (Bio-Glo) at 11.111 nm,MOA NFAT reporter signal (Bio-Glo) at 33.333 nm,MOA NFAT reporter signal (Bio-Glo) at 100.000 nm,MOA NFAT reporter signal (Bio-Glo) at 0.015 nm,Substance
15700,,,,,,,,,,,IgG1 negative control (antibody)
,18200,20300,23200,53100,89700,103000,97900,102000,94100,,Durvalumab (antibody)
,16900,17200,19200,29300,70800,96900,96500,98000,94000,18400,Atezolizumab (antibody)
